Results on 13 molecules are retold here after US20250320303A1 (SHENGHE CHINA BIOPHARMACEUTICAL, published 2025).

Bounds are passed on as bounds.

One may read the Kd as a measure of binding affinity in units of concentration. A low value points to tighter binding. The koff is the rate constant with which the complex falls apart. The kon is the second-order rate constant of association. As a reminder, the EC50 is the concentration that produces a half-maximal response. The low end stands for an effect from little substance, the high end for a need for much substance.

Test [1] addresses T1, human W3785-hProl.ECD.His (Human-TNFR2-His) protein (human, UniProt P20333 23-257).
T1 construct: extracellular domain; not shown: His tag
T1 sequence (looked up): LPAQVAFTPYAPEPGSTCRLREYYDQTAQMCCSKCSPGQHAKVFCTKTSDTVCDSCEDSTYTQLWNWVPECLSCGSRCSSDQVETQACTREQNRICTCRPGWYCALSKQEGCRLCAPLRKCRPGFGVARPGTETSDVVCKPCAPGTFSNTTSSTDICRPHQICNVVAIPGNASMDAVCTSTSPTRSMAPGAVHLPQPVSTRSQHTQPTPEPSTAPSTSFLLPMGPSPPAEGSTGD
Put plainly: BLI (Octet Red96e), antibody on AHC sensor, Human-TNFR2-His in solution, multiple concentrations.

The target in test [2] is T1, human W3785-hProl.ECD.His …. Put plainly: indirect ELISA on coated Human-TNFR2-His. As to the method: (1) Coating: Human-TNFR2-His was diluted to 0.5 μg/mL with coating solution (1×PBS, pH 7.4), and coated into a 96-well ELISA plate at 100 μL/well at 4° C. overnight. The coating solution was poured off, and the plate was washed with 1×PBST at 300 μL per well, washed with a plate cleaning instrument for 4 times, and patted dry on sheet paper. [0184] (2) Blocking: it was blocked with 3% non-fat dry milk at 300 μL/well, and incubated at 37° C. for 1 h. The blocking solution was poured off, washed by a plate cleaning instrument for 4 times, and patted dry on sheet paper. [0185] (3) Sample dilution: the reference product and the test product were diluted with 3% non-fat dry milk to 10 μg/mL, and this was used as the initial concentration for 3-fold dilution with a total of 11 gradients of dilution, and another one blank well was set up, and only diluent was added. It was incubated at 100 μL/well at 37° C. for 1 h. Liquid in the wells was discarded, washed by a plate cleaning instrument for 4 times, and patted dry on the sheet paper. [0186] (4) Addition of enzyme-labeled secondary antibody: Peroxidase-conjugated AffiniPure F(ab′)2 Fragment Goat Anti-Human IgG was diluted with 3% non-fat dry milk at 1:20,000. It was incubated at 100 μL/well at 37° C. for 1 h. It was washed by a plate cleaning instrument for 6 times and patted dry on sheet paper. […] (5) Color development: TMB color development solution was added at 100 μL/well and wrapped with aluminium foil, and the color was developed at 37° C. without light for 8 min. [0188] (6) Termination of color development: terminal solution 1 M HCl was added to terminate the color development reaction at 100 μL/well. [0189] (7) Reading at 450 nm on the enzyme labeler. [0190]
Background: In an ELISA, binding on a coated surface is turned into a signal by an enzyme label.

B1: Antibody 23 (antibody, V domains shown)
VH: EVQLVQSGAEVKKPGATVKISCKVSGYSITDYLLHWVQQAPGKGLEWMGWIDPEEGKTKYGQKFQSRVTITADTSTDTAYMELSSLRSEDTAVYYCAANSGTGTMDAWGQGTLVTVSS
VL: DIVMTQSPATLSVSPGERATLSCKASQNVGSNVDWYQQKPGQSPRVLIYKASIRYTGIPARFSGSGSGTEFTLTISILQSEDFAVYFCMQSKSYPITFGQGTKLEIK
notes: captured on AHC sensors
In test [1], B1 showed a Kd of 766 pM, a koff of 0.000371 s⁻¹ and a kon of 484000 M⁻¹ s⁻¹.

B2: Antibody 28 (antibody, V domains shown)
VH: EVQLVQSGAEVKKPGATVKISCKVSGYSITDYLLHWVQQAPGKGLEWMGWIDPEDAKTKYGQKFQSRVTITADTSTDTAYMELSSLRSEDTAVYYCAANSATGTMDAWGQGTLVTVSS
VL: DIVMTQSPATLSVSPGERATLSCKASQNVGSNVDWYQQKPGQSPRVLIYKASIRYTGIPARFSGSGSGTEFTLTISILQSEDFAVYFCMQSKSYPITFGQGTKLEIK
notes: captured on AHC sensors
For the molecule B2, in test [1], the Kd was < 1 pM, the koff was < 1e-07 s⁻¹ and the kon was found to be 225000 M⁻¹ s⁻¹.

B3: Antibody 26 (antibody, V domains shown)
VH: EVQLVQSGAEVKKPGATVKISCKVSGYSITDYLLHWVQQAPGKGLEWMGWIDPEEGKTKYGQKFQSRVTITADTSTDTAYMELSSLRSEDTAVYYCAANSATGTMDAWGQGTLVTVSS
VL: DIVMTQSPATLSVSPGERATLSCKASQNVGSNVDWYQQKPGQSPRVLIYKASIRYTGIPARFSGSGSGTEFTLTISILQSEDFAVYFCMQSKSYPITFGQGTKLEIK
notes: captured on AHC sensors
In test [1], B3 displayed a Kd of 55.1 pM, a koff of 1.41e-05 s⁻¹ and a kon of 256000 M⁻¹ s⁻¹.

B4: Antibody 24 (antibody, V domains shown)
VH: EVQLVQSGAEVKKPGATVKISCKVSGYSITDYLLHWVQQAPGKGLEWMGWIDPEDAKTKYGQKFQSRVTITADTSTDTAYMELSSLRSEDTAVYYCAANSGTGTMDAWGQGTLVTVSS
VL: DIVMTQSPATLSVSPGERATLSCKASQNVGSNVDWYQQKPGQSPRVLIYKASIRYTGIPARFSGSGSGTEFTLTISILQSEDFAVYFCMQSKSYPITFGQGTKLEIK
notes: captured on AHC sensors
As for B4, in test [1], binding was characterised by a dissociation constant (Kd) of 152 pM, the koff was found to be 0.000109 s⁻¹ and the kon is 718000 M⁻¹ s⁻¹.

B5: Antibody 25 (antibody, V domains shown)
VH: EVQLVQSGAEVKKPGATVKISCKVSGYSITDYLLHWVQQAPGKGLEWMGWIDPEEGKTKYGQKFQSRVTITADTSTDTAYMELSSLRSEDTAVYYCAAQSGTGTMDAWGQGTLVTVSS
VL: DIVMTQSPATLSVSPGERATLSCKASQNVGSNVDWYQQKPGQSPRVLIYKASIRYTGIPARFSGSGSGTEFTLTISILQSEDFAVYFCMQSKSYPITFGQGTKLEIK
notes: captured on AHC sensors
In test [1], B5 yielded a Kd of 1390 pM, an off-rate constant (koff) of 0.00193 s⁻¹ and a kon of 1.39e+06 M⁻¹ s⁻¹.

B6: Antibody 27 (antibody, V domains shown)
VH: EVQLVQSGAEVKKPGATVKISCKVSGYSITDYLLHWVQQAPGKGLEWMGWIDPEDAKTKYGQKFQSRVTITADTSTDTAYMELSSLRSEDTAVYYCAAQSGTGTMDAWGQGTLVTVSS
VL: DIVMTQSPATLSVSPGERATLSCKASQNVGSNVDWYQQKPGQSPRVLIYKASIRYTGIPARFSGSGSGTEFTLTISILQSEDFAVYFCMQSKSYPITFGQGTKLEIK
notes: captured on AHC sensors
For B6, in test [1], the affinity, expressed as Kd, was 537 pM; the koff turned out to be 0.00077 s⁻¹; the kon amounted to 1.44e+06 M⁻¹ s⁻¹.

B7: Antibody 12 (antibody, V domains shown)
VH: QVQLVQSGAEVKKPGASVKVSCKASGYTFTDYIIHWVRQAPGQGLEWMGWIDPDYGNTDYADKFKKRVTMTADTSISTAFMELSRLRSDDTAVYYCARDDGSPLVMDAWGQGTLVTVSS
VL: DIQMTQSPSSLSASVGDRVTITCQGSQNIDNYLAWFQQKPGKAPKLLIYSTYSLQTGVPSRFSGSRSGTDFTLTISSLQPEDFATYFCFQYNNGYMFGGGTKLELK
notes: detected with anti-human IgG and captured on AHC sensors
As for B7, a half-maximal response in test [2] (EC50) required 13.5 ng/mL. Also, in test [1], the Kd was 86.3 pM, the koff was determined as 0.000102 s⁻¹ and the kon turned out to be 1.21e+06 M⁻¹ s⁻¹.

B8: Antibody 19 (antibody, V domains shown)
VH: QVQLVQSGAEVKKPGASVKVSCKASGYTFTDYIIHWVRQAPGQGLEWMGWIDPDYGNTDYADKFKKRVTMTADTSISTAFMELSRLRSDDTAVYYCARDDASPLVMDAWGQGTLVTVSS
VL: DIQMTQSPSSLSASVGDRVTITCQGSQNIDNYLAWFQQKPGKAPKLLIYSTYSLQTGVPSRFSGSRSGTDFTLTISSLQPEDFATYFCFQYNQGYMFGGGTKLELK
notes: captured on AHC sensors
On to B8, for which, in test [1], the Kd is 1480 pM, the koff was 0.00127 s⁻¹ and the kon amounted to 862000 M⁻¹ s⁻¹.

B9: Antibody 18 (antibody, V domains shown)
VH: QVQLVQSGAEVKKPGASVKVSCKASGYTFTDYIIHWVRQAPGQGLEWMGWIDPDYGNTDYADKFKKRVTMTADTSISTAFMELSRLRSDDTAVYYCARDDGSPLVMDAWGQGTLVTVSS
VL: DIQMTQSPSSLSASVGDRVTITCQGSQNIDNYLAWFQQKPGKAPKLLIYSTYSLQTGVPSRFSGSRSGTDFTLTISSLQPEDFATYFCFQYNQGYMFGGGTKLELK
notes: captured on AHC sensors
As to B9, in test [1], binding was characterised by a dissociation constant (Kd) of 63.8 pM, the koff stood at 6.22e-05 s⁻¹ and the kon stood at 974000 M⁻¹ s⁻¹.

B10: Antibody 15 (antibody, V domains shown)
VH: QVQLVQSGAEVKKPGASVKVSCKASGYTFTDYIIHWVRQAPGQGLEWMGWIDPDYGNTDYADKFKKRVTMTADTSISTAFMELSRLRSDDTAVYYCARDDASPLVMDAWGQGTLVTVSS
VL: DIQMTQSPSSLSASVGDRVTITCQGSQNIDNYLAWFQQKPGKAPKLLIYSTYSLQTGVPSRFSGSRSGTDFTLTISSLQPEDFATYFCFQYNNGYMFGGGTKLELK
notes: as for B7
Turning to B10, the EC50 in test [2] was found to be 3.2 ng/mL. In addition, the affinity in test [1], expressed as Kd, was 2060 pM.

B11: Antibody 16 (antibody, V domains shown)
VH: QVQLVQSGAEVKKPGASVKVSCKASGYTFTDYIIHWVRQAPGQGLEWMGWIDPDYGNTDYADKFKKRVTMTADTSISTAFMELSRLRSDDTAVYYCARDEGSPLVMDAWGQGTLVTVSS
VL: DIQMTQSPSSLSASVGDRVTITCNGSQNIDNYLAWFQQKPGKAPKLLIYSTYSLQTGVPSRFSGSRSGTDFTLTISSLQPEDFATYFCFQYNNGYMFGGGTKLELK
notes: as for B7
B11: in test [2], the EC50 amounted to 20.3 ng/mL. In test [1], binding was put at a Kd of 117 pM, the off-rate constant (koff) was 0.000134 s⁻¹ and the kon stood at 1.15e+06 M⁻¹ s⁻¹.

B12: Antibody 14 (antibody, V domains shown)
VH: QVQLVQSGAEVKKPGASVKVSCKASGYTFTDYIIHWVRQAPGQGLEWMGWIDPDYGNTDYADKFKKRVTMTADTSISTAFMELSRLRSDDTAVYYCARDDASPLVMDAWGQGTLVTVSS
VL: DIQMTQSPSSLSASVGDRVTITCNGSQNIDNYLAWFQQKPGKAPKLLIYSTYSLQTGVPSRFSGSRSGTDFTLTISSLQPEDFATYFCFQYNNGYMFGGGTKLELK
notes: as for B7
As to B12, in test [2], a half-maximal response (EC50) required 3.75 ng/mL. In test [1], this molecule registered a dissociation constant (Kd) of 3030 pM, a koff of 0.00282 s⁻¹ and an association rate constant (kon) of 931000 M⁻¹ s⁻¹.

B13: Antibody 13 (antibody, V domains shown)
VH: QVQLVQSGAEVKKPGASVKVSCKASGYTFTDYIIHWVRQAPGQGLEWMGWIDPDYGNTDYADKFKKRVTMTADTSISTAFMELSRLRSDDTAVYYCARDDGSPLVMDAWGQGTLVTVSS
VL: DIQMTQSPSSLSASVGDRVTITCNGAQNIDNYLAWFQQKPGKAPKLLIYSTYSLQTGVPSRFSGSRSGTDFTLTISSLQPEDFATYFCFQYNNGYMFGGGTKLELK
notes: as for B7
With B13, the EC50 in test [2] was determined as 4.96 ng/mL. In test [1], this molecule gave a Kd of 117 pM, a dissociation rate constant (koff) of 0.000134 s⁻¹ and a kon of 1.15e+06 M⁻¹ s⁻¹.
